Columns and labels:
[1] = target: AMC011 SOSIP-I53-50A (HIV-1 (AMC011, Clade B)); assay: not stated; purified fusion proteins; result shown in Supplementary Fig. 2d, e (not shown)
[2] = target: BG505 SOSIP-I53-50A.1NT1 (HIV-1 (BG505)) (UniProt Q2N0S6); assay: SEC; SOSIP fusion protein after PGT145 purification, Superose 6 Increase, Assembly Buffer II (25 mM Tris, 500 mM NaCl, 5% glycerol pH 8.2); trimer and aggregate peaks
[3] = target: BG505 SOSIP-I53-50A.1NT1 (HIV-1 (BG505)) (UniProt Q2N0S6); assay: negative-stain EM
[4] = target: ConM SOSIP-I53-50A (HIV-1 (consensus of Group M)); assay: not stated; purified fusion proteins; result shown in Supplementary Fig. 2d, e (not shown)
[5] = target: ZM197M SOSIP-I53-50A (HIV-1 (ZM197M, Clade C)); assay: as above

## AMC011 SOSIP-I53-50A (designed binder)
[1]
  stoichiometry N: 3

## BG505 SOSIP-I53-50A.1NT1 (from UniProt Q2N0S6) (designed binder)
[2]
  stoichiometry N: 3
[3]
  stoichiometry N: 3

## ConM SOSIP-I53-50A (designed binder)
[4]
  stoichiometry N: 3

## ZM197M SOSIP-I53-50A (designed binder)
[5]
  stoichiometry N: 3
